Patent US20130115166A1 (CEPHALON AUSTRALIA, published 2013)

Tests used:
FLAG-tagged IL-12p40 = molecular target: T1, FLAG-tagged IL-12p40 (human, UniProt P29460 23-328); assay: ELISA, hybridoma supernatant on antigen captured by anti-FLAG M2
T1 sequence: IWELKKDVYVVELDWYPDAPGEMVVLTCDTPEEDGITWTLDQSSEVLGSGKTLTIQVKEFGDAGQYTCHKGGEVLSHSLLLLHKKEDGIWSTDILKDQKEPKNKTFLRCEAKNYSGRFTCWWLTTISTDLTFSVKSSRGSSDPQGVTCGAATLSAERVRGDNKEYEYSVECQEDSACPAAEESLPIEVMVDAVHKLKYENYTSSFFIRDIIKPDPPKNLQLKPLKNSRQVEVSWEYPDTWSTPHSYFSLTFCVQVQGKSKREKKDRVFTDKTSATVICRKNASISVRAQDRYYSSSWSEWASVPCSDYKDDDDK
Method: (§1) Anti-FLAG M2 antibody (Sigma-Aldrich) was coated onto ELISA plates overnight. These plates were then used to capture individually: FLAG-tagged IL-23p19, FLAG-tagged IL-12p40 and FLAG-tagged IL-23. Hybridoma supernatant from the clones was added and hybridomas that were positive for binding to IL-23 but not IL-12p40 or IL-23p19 were expanded.

FLAG-tagged IL-23p19 = molecular target: T2, FLAG-tagged IL-23p19 (human, UniProt Q9NPF7 20-189); assay: as above
T2 sequence: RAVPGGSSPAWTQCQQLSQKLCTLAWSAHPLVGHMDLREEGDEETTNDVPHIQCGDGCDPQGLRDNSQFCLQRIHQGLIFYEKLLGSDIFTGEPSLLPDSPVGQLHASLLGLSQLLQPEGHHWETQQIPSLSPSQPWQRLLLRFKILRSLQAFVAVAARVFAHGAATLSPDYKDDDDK
Method: as §1

binding result (FLAG-tagged IL-12p40): no binding
binding result (FLAG-tagged IL-23p19): no binding
B1: E11E7 (antibody, V domains shown)
VH: QVQLKESGPGLVQPSQTLSLTCTVSGFSLISYNVHWVRQPRGKGLEWMGVIWTGGSTDYNSVLKSRLSISRDTSKSQVFLKMHSLQTEDIGTYYCARDKYGLFPGYFDYWGQGVMVTVSS
VL: DIVMTQSPFSLAVSEGEMVTINCKPSQSLLSSGNRKNYLAWYQQKPGQSPKLLIYYASTRQSGVPDRFIGSGSGTDFTLTISDVQAEDLADYYCLQHFNYPWTFGGGTKLELKR
notes: Rat monoclonal antibody from a hybridoma; also called rat antibody E11E7
